As a reminder, the Kd is the constant that tells how readily two partners part at equilibrium. For orientation: koff means the rate constant with which the complex falls apart. The kon is the second-order rate constant of association.

Assay [1] has as its target T1, human complement Factor H (human, UniProt P08603 19-1231).
T1 construct: complement factor H, human, purified; also called FH
The assay can be described thus: SPR; Biacore X100; FH coupled to a CM4 chip, recombinant PspCs injected at five increasing concentrations (kinetic titration); PBS-P+ buffer; fitted with a 1:1 binding model. Particulars: both partners purified. On the technique in general: Surface plasmon resonance follows binding to a sensor surface in real time, without labels.

Assay [2] has as its target T1, human complement Factor H. The description is as above. Particulars: both partners purified. This is another data set of the same source.

T1 sequence (P08603 19-1231): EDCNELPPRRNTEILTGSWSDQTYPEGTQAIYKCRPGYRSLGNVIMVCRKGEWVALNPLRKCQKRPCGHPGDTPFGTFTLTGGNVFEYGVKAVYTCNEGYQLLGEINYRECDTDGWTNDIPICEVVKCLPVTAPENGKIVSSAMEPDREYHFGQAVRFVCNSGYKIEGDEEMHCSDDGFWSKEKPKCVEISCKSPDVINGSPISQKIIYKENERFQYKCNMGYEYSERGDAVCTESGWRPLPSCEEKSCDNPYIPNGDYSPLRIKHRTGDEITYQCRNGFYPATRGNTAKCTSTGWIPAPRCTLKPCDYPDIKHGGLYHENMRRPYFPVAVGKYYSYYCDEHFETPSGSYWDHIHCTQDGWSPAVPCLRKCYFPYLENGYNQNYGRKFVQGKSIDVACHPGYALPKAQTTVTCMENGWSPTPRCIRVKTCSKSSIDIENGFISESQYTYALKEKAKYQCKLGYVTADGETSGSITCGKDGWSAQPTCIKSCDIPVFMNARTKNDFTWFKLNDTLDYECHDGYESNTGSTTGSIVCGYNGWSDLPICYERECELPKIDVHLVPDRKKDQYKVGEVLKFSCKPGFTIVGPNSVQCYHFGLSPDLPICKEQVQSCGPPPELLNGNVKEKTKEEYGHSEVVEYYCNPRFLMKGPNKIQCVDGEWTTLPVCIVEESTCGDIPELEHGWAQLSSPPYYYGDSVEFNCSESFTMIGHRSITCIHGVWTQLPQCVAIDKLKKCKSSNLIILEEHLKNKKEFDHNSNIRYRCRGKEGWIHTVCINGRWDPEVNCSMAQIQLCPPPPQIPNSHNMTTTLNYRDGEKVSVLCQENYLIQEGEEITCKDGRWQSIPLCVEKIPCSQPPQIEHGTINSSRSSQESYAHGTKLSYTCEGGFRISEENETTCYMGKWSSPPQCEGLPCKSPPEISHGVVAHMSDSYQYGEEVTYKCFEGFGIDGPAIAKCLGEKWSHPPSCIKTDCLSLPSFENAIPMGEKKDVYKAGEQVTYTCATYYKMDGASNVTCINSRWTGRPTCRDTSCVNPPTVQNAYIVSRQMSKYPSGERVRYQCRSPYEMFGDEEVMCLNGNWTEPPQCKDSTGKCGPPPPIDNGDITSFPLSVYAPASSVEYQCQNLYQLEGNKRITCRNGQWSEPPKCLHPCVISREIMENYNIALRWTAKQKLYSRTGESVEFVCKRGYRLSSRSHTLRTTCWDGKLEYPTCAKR

B1: recombinant PspC1 (BHN418) (domain or fragment)
chain: EEVGGRNTPTVTSSGQDISKKYADEVESHLKKILSEIQTQLDRKRHTKTVALINELQDIKKTYLYNLNVLKEKSELPSKIKAKLEVAFDQFKKDTLKPGEKVAEAEKKVAEAKKKAEDQKEEDRRNYPTNTYKTLELEIAESDVKVKEAELELVNEEAKPGNEEKIKKAKAKVESEKAEAIRLEEIKTDREEAKRKADAKLKEAVENNAATSEQGEPKRRVKRGVLGEPATPDKKENDAKSSDSSVGEETLPSPSLKPEKKVAEAEKKAKDQKEEDRRNYPTNTYKTLELEIAESDVKVKEAELELVKEEAKESRNEEKVKQAKAKVESKKAEATRLEKIKTDRKKAEEAKRKAAEEDKVKEKPAEQPQPAPAPQPEKPAPKPEKPAPAPKPENPAEQPKAEKPADQQAEEDYARRSEEEYNRLTQQQPPKTEKPAQPSTPKTGWKQENGMWYFYNTDGSMA
Turning to B1, in assay [1], the Kd was 0.0908 nM. Also, in assay [2], the Kd was determined as 0.09 nM, the koff turned out to be 6.2e-05 s⁻¹ and the kon amounted to 690000 M⁻¹ s⁻¹.

B2: recombinant PspC2 (BHN418) (domain or fragment)
chain: TEKEGSTQAATSFNRGNGSQAEQRGELDLERDKAMKAVSEYVGKMVRDAYVKSDRKRHKNTVALVNQLGNIKNRYLNEIVHSTSKSQLQELMMKSQSEVDEAVSKFEKDSFSSSSSGSSTKPETPQPENPEHQKPTTPSPDTKPSPQPEGKKPSVPDINQEKEKAKLAVVTYMSKILDDIQKHHLQKEKHRQIVALIKELDELKKQALSEIDNVNTKVEIENTVHKIFADMDAVVTKFKKGLTQDTPKEPGNKKPSAPKPGMQPSPQPEVKPQLEKPKPEVKPQPEKPKPEVKPQPEKPKPEVKPQPEKPKPEVKPQPEKPKPEVKPQPEKPKPEVKPQPEKPKPEVKPQPEKPKPEVKPQPEKPKPEVKPQPEKPKPEVKPQPEKPKPEVKPQPEKPKPEVKPQPEKPKPEVKPQPEKPKPEVKPQPEKPKPEVKPQPEKPKPEVKPQPEKPKPEVKPQPEKPKPEVKPQPEKPKPEVKPQPEKPKPDNSKPQADDKKPSTTNNLSKDKQPSNQASTNEKATNKPKK
notes: PspC2 of Streptococcus pneumoniae BHN418, lacking the LPxTG motif and the first 37 aa (signal peptide); whole precursor given in Supplementary Data 1; cloned NdeI/XhoI in pET28a; source: E. coli Rosetta (DE3), purified (Ni-NTA, thrombin, Ni-NTA, Superdex 75); not shown: 6xHis, N-terminal, cleaved
Consider B2, for which, in assay [2], the Kd came out at 0.013 nM, the koff is 5.5e-05 s⁻¹ and the kon was 4.1e+06 M⁻¹ s⁻¹.
